Laboratory results published in paper PMC2258145, “Transcriptional Regulation of PIK3CA Oncogene by NF-κB in Ovarian Cancer Microenvironment”.

Target: NF-kB p50 (recombinant, Promega) (UniProt P19838 1-433)
Assay: EMSA; LightShift EMSA kit binding buffer, 1 ug poly(dI-dC), 30 fmol biotin probe, 20 ul, room temperature 20 min; 7.5% PAGE in 0.25x TBE; salt and pH not stated
Conditions: protein: commercial; chain copies: 2; label: 5'-biotin; blunt

NF-kB p50 (recombinant, Promega), sequence (P19838 1-433): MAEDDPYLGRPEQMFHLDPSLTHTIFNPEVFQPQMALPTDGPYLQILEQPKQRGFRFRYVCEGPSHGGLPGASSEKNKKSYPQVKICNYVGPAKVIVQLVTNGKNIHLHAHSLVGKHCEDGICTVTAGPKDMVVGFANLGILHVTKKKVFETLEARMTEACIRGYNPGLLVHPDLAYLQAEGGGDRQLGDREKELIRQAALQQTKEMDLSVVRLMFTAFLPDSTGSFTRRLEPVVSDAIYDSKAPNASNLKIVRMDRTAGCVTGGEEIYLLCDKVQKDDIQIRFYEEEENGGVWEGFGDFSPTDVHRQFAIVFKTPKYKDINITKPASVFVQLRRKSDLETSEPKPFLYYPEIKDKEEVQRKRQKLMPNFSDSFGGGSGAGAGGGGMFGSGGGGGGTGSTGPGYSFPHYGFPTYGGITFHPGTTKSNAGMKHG

B1: wt huPIK3CA NF-kB probe (dsDNA)
DNA 1: GACGTGGGGGATTTTTCGCGTA
DNA 2: TACGCGAAAAATCCCCCACGTC
B1: binds.
